# Test results from article PMC11006873, “Fuzzy recognition by the prokaryotic transcription factor HigA2 from Vibrio cholerae” (Nature Communications, 2024).
# How the values were obtained:
# [1] = target: HigA2Phd (Vibrio cholerae (globular domain); Phd IDR organism not stated) (UniProt Q9KMA5); assay: ITC; settings: ITC: 20 mM sodium phosphate pH 7.0, 150 mM NaCl, 1 mM EDTA, 25 or 5 C; EMSA/footprint: 20 mM Tris pH 8, 200 mM NaCl; NMR: 20 mM sodium phosphate pH 6.8, 130 mM …
# HigA2 [2] = target: T1, HigA2 (Vibrio cholerae, UniProt Q9KMA5); assay: ITC; 5 C; ITC: 20 mM sodium phosphate pH 7.0, 150 mM NaCl, 1 mM EDTA, 25 or 5 C; EMSA/footprint: 20 mM Tris pH 8, 200 mM NaCl; NMR: 20 mM sodium phosphate pH 6.8, 130 mM; settings: protein: recombinant; tags: C-terminal His6, uncleavable; chain copies: 2
# HigA2Mut(14-25) = HigA2Mut(14-25) (Vibrio cholerae, UniProt Q9KMA5, L14S;V15S;E16A;A17T;K18A;Q19S;H20G;S21A;E22T;G23A;K24S;L25S); assay: as above; settings: protein: recombinant; tags: C-terminal His6, uncleavable; chain copies: 2
# HigA2ΔIDR [3] = target: T2, HigA2ΔIDR (Vibrio cholerae, UniProt Q9KMA5, del1-36); assay: as above; settings: protein: recombinant; tags: C-terminal His6, uncleavable; chain copies: 2
# HigA2Mut(26-37) = HigA2Mut(26-37) (Vibrio cholerae, UniProt Q9KMA5, T26S;L27S;K28A;H30A;H31S;V32G;N33A;D34T;V35A;G36S;E37S); assay: as above; settings: protein: recombinant; tags: C-terminal His6, uncleavable; chain copies: 2
# HigA2Mut(2-13) = HigA2Mut(2-13) (Vibrio cholerae, UniProt Q9KMA5, N3S;R4A;D5T;L6A;F7S;A8G;E9A;L10T;S11A;A13S); assay: as above; settings: protein: recombinant; tags: C-terminal His6, uncleavable; chain copies: 2
# HigA2Shuff = HigA2Shuff (Vibrio cholerae, UniProt Q9KMA5, IDR sequence shuffled); assay: as above; settings: protein: recombinant; tags: C-terminal His6, uncleavable; chain copies: 2
# HigA2 [4] = target: T1, HigA2; assay: ITC; 25 C; ITC: 20 mM sodium phosphate pH 7.0, 150 mM NaCl, 1 mM EDTA, 25 or 5 C; EMSA/footprint: 20 mM Tris pH 8, 200 mM NaCl; NMR: 20 mM sodium phosphate pH 6.8, 130 mM; settings: protein: recombinant; tags: C-terminal His6, uncleavable; chain copies: 2
# [5] = target: the molecule itself; assay: crystal structure; HigA2 and the 17 bp operator fragment Opr17 mixed 1:1.2, 250 uM complex; sitting drop vapor diffusion; 0.2 M sodium chloride, 0.1 M Na HEPES pH 7.5, 12% (w/v) PEG 8000
# HigA2IDR = target: T3, HigA2IDR (Vibrio cholerae, UniProt Q9KMA5); assay: ITC; 25 C; ITC: 20 mM sodium phosphate pH 7.0, 150 mM NaCl, 1 mM EDTA, 25 or 5 C; EMSA/footprint: 20 mM Tris pH 8, 200 mM NaCl; NMR: 20 mM sodium phosphate pH 6.8, 130 mM; settings: tags: C-terminal extra W; chain copies: 2
# T3 chain: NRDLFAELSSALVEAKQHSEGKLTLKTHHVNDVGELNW
# HigA2ΔIDR [6] = target: T2, HigA2ΔIDR; assay: as above; settings: protein: recombinant; tags: C-terminal His6, uncleavable; chain copies: 2
# HigA2 [7] = target: T1, HigA2; assay: X-ray crystallography; HigA2 dimer; residues 37-104 visible; ITC: 20 mM sodium phosphate pH 7.0, 150 mM NaCl, 1 mM EDTA, 25 or 5 C; EMSA/footprint: 20 mM Tris pH 8, 200 mM NaCl; NMR: 20 mM sodium phosphate pH 6.8, 130 mM; settings: protein: recombinant; tags: C-terminal His6, uncleavable; chain copies: 2; blunt
molecule,measurement,setting,value
ATCTGTACGCTTGGTGCGTACACTT (double strand) [Opr25],Kd,[1],10000 nM
Opr25 (dsDNA) DNA 1: ATCTGTACGCTTGGTGCGTACACTT DNA 2: AAGTGTACGCACCAAGCGTACAGAT,Kd,HigA2 [2],15 ± 3 nM
same,Kd,HigA2Mut(14-25),5100 ± 2400 nM
same,Kd,HigA2ΔIDR [3],480 ± 160 nM
same,binding result,HigA2Mut(26-37),no binding
same,Kd,HigA2Mut(2-13),390 ± 130 nM
same,Kd,HigA2Shuff,37000 ± 20000 nM
same,Kd,HigA2 [4],13.8 ± 5.8 nM
"HigA2 antitoxin from Vibrio cholerae (full-length, C-terminal histidine tag) (natural protein, Antitoxin HigA2 of the higBA2 toxin-antitoxin module, Vibrio cholerae; N-terminal disordered region (residues 2-36) and globular C-terminal HTH domain (residues 37-104); only residues 37-104 are seen in the crystal; The histidine tag is un-cleavable (pET21b, NdeI/XhoI); also called wild-type HigA2; full-length HigA2; not shown: histidine tag, C-terminal, kept) MSNRDLFAELSSALVEAKQHSEGKLTLKTHHVNDVGELNISPDEIVSIREQFNMSRGVFARLLHTSSRTLENWEQGRSVPNGQAVTLLKLVQRHPETLSHIAEL",stoichiometry N,[5],2
Opr45 (dsDNA) DNA 1: AATTCTTGCCATCTGTACGCTTGGTGCGTACACTTCCTATATGAA DNA 2: TTCATATAGGAAGTGTACGCACCAAGCGTACAGATGGCAAGAATT,Kd,HigA2 [4],25.1 ± 5.2 nM
same,binding result,HigA2IDR,no binding
same,Kd,HigA2ΔIDR [6],400 ± 50 nM
Opr17 (dsDNA) DNA 1: GTACGCTTGGTGCGTAC DNA 2: GTACGCACCAAGCGTAC,binding result,HigA2 [7],binds
